Experimental data: a protein production outcome set (Wang et al. 2014)

Assay: label from the status in PepcDB records
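Also: failed if final PepcDB status was selected cloned or expressed and not failed if soluble or beyond.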

Sequence | protein production
MPVAISLPTSSTSHFFPRRRGHANHRYQRFSGAQSSTEDPYIRKNQTGVIIIGAGLAGLAAANQLTSKRIPFLLLEASDGVGGRVRTDIVDGFFLDRGFQIFITAYPEAKKLLDYEALDLQRFYAGAKVFYGGKFHTVADPLRHFWDSVASLANPIGSVVDKGLIALTRARVLIKSDEEILTAADEVPTIDLLRKIGFSETILDRFFRPFFGGIFFDRDLETTSKLFDFVFRCLALGENTLPAMGIGEISNQLAAKLPAKSVLLNTRVASIEYPNGSGSDPPSVRLQDGSVMKAELGVIIAVEQPEVNKLLDGIRDPVITKPARSTICLYFTAEPNQIPVQDPVLFLNGSNSGIINNMFFATNVARTYAPPGKALVSVSLIGLFEDRTDDDLAAEVLRELSGWFGESPVMSWKHLKTYRIQFAQPNQCPPTDLVKSPRVGSGLYLSGDYMTSATFDGALVSGRRAVEVLLRETGLIK | failed
MPVFRRHASQNCASIPPMMLFKRPDTETLYFALVNKDPAYEGVAYVCVTSTKIFCRFTCTARKPKIENCRFRETITECLEAGFRPCKRCKPMLSYGTPDGTVTALLTALENEPARRWREEDVVALGHDPSTVRRSFKRRFGMSFLEIARLRRVGDAAESLASGEAVIGAQIDAGYESGSGFRSAINQLFGTSPAAMKGRGFLKGDWIDTPIGPMLAVADDHALHLLEFADRPALPAELKRLKARTGADMVLGRTAVTGQIAAELAAYFAGRSGSFETRLAGHGTPFERDVWRNLREIPAGEIVSYSSLATAMERPTAVRAVARANGANQLAIVVPCHRVLGADGSLTGYGGGLWRKKWLIEHERRMARGQMLGMPLASLEHHHHHH | failed
MPVKRIAVFSTTHIGFLDMLGRSDGIIGVSRPEFVNTPAVRSRIRSGAIKAIGMPFSPDVEALLNLEPDLVIAPALPAARKTDYQALVQAGIPVLVVAEWLEPSPLGRAEWIKLFGALVGKEKLARERFAAIESSYLKIAALSRNLPLEHHHHHH | failed
MPVRRPCPGRPYRDLSSAPGTAVRAEPTTPLPPFALRTCACQTPGRDMSVNALTAVPSARSIPATSAFRGRIGCDARSGHYPVPGRYRLHLSPSCPHCLKIAVAHSLLGLEDACPVTLLPAVPDGPGGEHSALRPLYEASAHRYAGAAVAPVLSDDWSGRIVSTHAPDIMRDLARRFGGERPPLYPKGMEAEIEAVGHLCEQGINATAQRAGRADADDAERDSALGSLLRTLRSLEGRLARQDYLLGDRLTAADIELWVSLVQLDTVHRWHLDASAVHRVADHPALWAYARRLAGDPAFGAHLDLDGIARRHHAHCRGLEAAGAAVQIVEWAAHAPDRTASRQG | failed
MPVTETIPLHETARERYLNYALSVITSRALPDIRDGLKPVQRRILFAMFDSLNLYPSKRHRKSATVVGETMGKYHPHGDKAIYDAMVRMAQSFSLRAPLVDGHGNFGSLDGDSAAAMRYTEAKLQPLAMEMLEGLRDETVDYRDNFDGSLEEPVVLPARVPNLLVNGASGIAVGMATNIPPHNLGEVVDAALHMIEEPEVDTSTLVRDHIQGPDFPTGGRILNTQDELAEIYETGSGTIEMRGAYRTKGKTRAIIESVPYGVDKSKIVEEIADHIAEENVPQLSNVRDESTDDVRIVLELKRGSDTEAAMAYLFKHTKLQKRFHVNLTCLVPTESTDVKAPKQVDLRTILRYFLDFRLDVVTRRLQNELAELEARIHILEGFETIFDALDEAIEIIRASKNKADAAQRLMHRFQLDEEQTDAILETQLYKLSQMEIEAIRDELGEKRARAEGIRRLLDDEDARWGIVKDELQDIRDEYTDERRSTLVGPGADMEYTEEDYIVDEDVHVIVTRDGWVKRQGTYSDLDAIRTRDGDEVGWALAGSTRATVGFFTNYGTCYTTRITEIPSTTGYGDPVQKLFSFDDGEHVVGVVSFDDRALPDPVPAEPSEQGELFDPDDPDAPDQPYVVAISKGGQATRFTLDGYLEPSISTGRKYMRLEDGDEVARVHLARGDENICLASHDGRALVFPVHQVSVYKGPAKGVRAIRLEDNDRVLDFALSTRARDGLTVETNNGREEIVRTTKFDATNRGAKGTLVIKRGYFAEVFPEPVEVPLHEAA | failed
MPVVECDIQTARAALADAGASFSDGNSEHELWHADLGDAHAVAYADKLVVQGGSPTDITAVVQPDRGGRVHAYFDGASRGNPGPAAVGWVLVSGDGGIVAEGGDTIGRATNNQAEYDALIAALEAAADFGFDDIELRGDSQLVEKQLTGAWDTNDPDLRRKRVRARELLTGFDDWSITHVPRATNERADALANEALDDA | failed
MPYKTKSDLPESVKHVLPSHAQDIYKEAFNSAWDQYKDKEDRRDDASREETAHKVAWAAVKHEYAKGDDDKWHKKS | not failed
MPYLAGCGAVLYVDVMPEGTLLTRGVSASPTRCGRTPPGGRGVWLLCATIFYWAVARFGMALFSLAPENITPLWLASGVGLIMCLEAGLSAVPCIALASAVANFPGLSASGGESPLLYAVLTGTADGLSAGLLAALGSRVLQGGITSVLDLLRGVVLVCLPATLIGGVAITLCLFTGGYVPRDVLCQMSFSLMAGDTLGVLLVFPLWRAWHVLPLPSRTELCWMAGVLCLCLLSIWSAFFVEGAAIHMLMPLLVLLSCNVRINGVMVVLFLTVIAVFIATAHRVGPFHMPTQGEAVMLLVSFAASTTLTTLGLSLYRHLLAQAGARATMWEQRAGIDPLTGLCNRARFDEVLLAELQRLQRQDSPLSLMMFDADHFKPYNDMYGHVAGDACLKRVAGVLRAVAHRASDVVARYGGEEFVCILPGTDRDSAYALAEKVRQGVRALAIPHVGSPVAGVLTVSAGVVTVHGCDGLDPQEVVAQVDRALYQAKGAGRDRVMVAKGAAKEGMQYGECALSGVQRLVWSEDYACGEPRIDASHRALLAKADSIMSSLGGADGLNARRACILALVDAVRMHFREEERVLAAIGYPKAGEHAVIHEALLQRGASLVAAWERGGMSLDDVVITLVHGMVMRHMLDDDSAFFEHVQQWGAGGTQP | failed
MPYTVRFTTTARRDLHKLPPRILAAVVEFAFGDLSREPLRVGKPLRRELAGTFSARRGTYRLLYRIDDEHTTVVILRVDHRADIYRR | not failed
MQAAAARIVTIAVCPGPAAAMQDAILQALRRDAADDAVALAREWVTNAPDHAAAHRWLALALQQQGQPALALDSIDTALTLTPEDADLHLLRAGALLATRDLSAADAALSRTTALDPNQFNAYVMQAHLAVARGDLDEAERLSRTAARLAPEHPQLLAVDGVVEMRRGQDDRALSLLTRAAEQLPDDARVLFSLGFAYLQKEHFAFAERAFERVIELNPPGTALRAFIAQLAQRQGRLDDALAAMQGVLDQPDGDLPAMRRLAGEMELQAGRPDQAAAHLRLALAHWPADRRTLHALLTAWERLGAVDDARDTLDAALATSATAHDLWLARLAVEPVGGPQAQAVIERWLLAMPEHLPALEALMRVHDMQGQADEAEMVARQIVAVEPGRISGEQRIVEALLQRDPPAAIACVESLIESLPAPQQTVLRPWLGNVQDRAGQPDAAVGTWMQFHREQAQHRLPLPPQAARQPTQWPALGSIPDTVTARPLFVWGTPGSHVERLVAVMGAATPLVRGDRYGITPPSDALQSYRTLEQLASGELAPTALVEGWKAQLPRRGIDDGNVIDWLLWWDNTLLTALRPHLPEGRLAIALRDPRDMLLDWLSAGASAPLALQSPQQATDWLLIALEQLATLHERDLYPHRIIRLDGIEDDPQGISTALEQAFGLSFPLVEPRGPARLASGRWRDYRGVLGAQFDLLTLIAVRFGYPQD | failed
MQAAVTVTPARLPELLLGLATVRPVFLWGAPGIGKSSLVRNFADSLGLECVSLLGTQLAPEDLIGVPQIRDGRSVFCPPESIARDEPYCLFLDELNAATPDVQKAFYSLILDRRIGNYELPKGSLVIGAGNRATDNALARPIASALVNRLTHVHLDASAKDWLVWAGENGIHPWITDHLTDRPDHLWSKPPKTEEPFSTPRSWHMLSDALHSFGQDLDEETLKVLAHGTLTPAHATAFCGYVKIVRSRFGIEAILKGEARWPSRIEDRDLLYYLAESFRGRLVKELPASKEHMSANGRQTAYRAKSLLVQLAEISVEVAQSVIASDADGNPLLPAWFLVEAARDMPRLVEARRLEHHHHHH | failed
MQAEGKRKKGDLLIILVVLIIGVGAAVPWLWNQLNPGGGNGEHERIAVITRDGKEVARINLDKVTEPQHFHYEGGIALTIVAENGKIRFLESQCPDQICVKTGSLSKPGDFAACLPAGTIVTIEGDEYE | failed
MQAILLNFCFDFMCNYVIMSNKHFYRLGGFIMSFKIITISREFGSGGRFIGEQIAQKCGIEFYDKKIIEHVAKELGISEQIVANQGEYAPAGNIFSYAFVGRDITGVSLSDQIFNIQQKLIKDIAQKEPCVIVGRCADYILSDRDDVLNVFIEGNKPEKAARIKKLYQKSDDEVKKLLKDVDKKRSVNYRYFTDKEWGNRKNYDLVLNSSVLGYDKCIELITAAYA | failed
MQASSNGTTHTKRVRIRPFQKGIRRKRKDLMTEAENRCRLVLIVPDIADADEQARIVADALKGGDVASVIVPQYGLDDGAFQKHAEKLVPVIQDAGAAALIAGDSRVAGRAKADGLHITGNAQALSEAIDKHAPKLIVGGGNASDRHNALEIGEVRPDYIFFGKLDGDIKPEAHPKNLALGEWWASMIEIPCIVMAGTDPASALAVAETRAEFVALRLAVFGEPGRAPSIVAEINALLDEKAPRFED | failed
MQDEYDAADLSLGVSDVTLVGEVLDTEAVRTFDRDDGSEGRVSNLVVGDETGRVRVTLWDDQADTATDLDAGAVVEIVDGYVREREGSLELHVGDTGAVTPVPDADVSFVPLEHHHHHH | not failed
MQDKYGVNHDHYCYESSDVLINLLNIRDPDELTQAEADFNLIRYSEYCSDLDELEDFDSNHFLNLHWVLFQDIYEWAGTIRDVDISKANTRFCTCSRVEPELNKAISRIPLIRFCRNKHELVALVADIFSDLNVVHPFREGNGRTTRFFFEELLHVAGYRIEWPVITKEEWVDANIHGYFGQLHKLEVIFDAAIIESLEHHHHHH | failed
MQEAPNTPTRPQAPPSAHLESPQPARTQQQSIQQMTPQSTTSSNNFLKDGAAGAVLEDQDIEEVLKALKTFDGGHVNPDTICEFFDEVWEEAAPAAPLPPAPPENVVDVPGAKPSCSGILVSGSNISQPNVIIKQEQRPWQESHAELEQQQHVISRRIEFLLRRMRKLQARAMCRHASEEVVGIMEWSARSSHKAPV | failed
MQEEWNPLMKNRCIIWLVTGICLTVIFQFPLKSVASSADKYANFAELAEHETEGEDYQIEYTDMGTELLILSPHGGGIEGGVSELVRAFSADYSTYLFEGIKPSQNWDLHITSNHFDEPQALKAVKEHSYVLAFHGYHDIVEHTLVGGTDTGGAKAIVRALLNKGFSAELVSPSHRLAGGNPENINNQCKTGQSIQLEISTPQREAFFSEFGLWTRASSKNETFQAYVSAVKEVLETRYK | failed
MQEKGNISIHTENIFPIIKKFLYSDHEIFLRELVSNAVDATQKLKRLAALGEYPGELGDTKVTVSVNKEAGTITITDRGIGMTAEEIKKYINQIAFSGATEFIEKYKDKTDTNQIIGHFGLGFYSAFMVSSNVEINTLSYQPNSKAAHWICDGSTEFEIKLSDKAERGSEITLHIAEDSLEFLETSRIHSILDKYCRFLPVEIEFEGEIINNPSPLWTKQPSELKDEDYIAFYKELYPMSEDPLFWIHLNVDYPFSLTGVLYFPKLKKDFEFQRNKIQLYSRQVFITDEVKDIVPEFLMLLHGVIDSPDIPLNVSRSFLQADGNVKKINSHITKKVADKLNELFNNDRAGFEAKWDDIGMFVKYGMISEEKFYDKAKNFCLLKNTDNALSTIEEYEQKIKPIQTDKNDKLVYLYSNNAVAQDIFIQAAKKKQYDVLLLDSVIDSHFLGQLESKLEKVQFKRIDSESVDKLIEKDEPKLSLLTKEQETQAEELFKKVVNNGKVIIKLEHLATDDMPVTIVISEFMRRMKDMAATSGQSMFGGFELTHEVVVNTNHPLIAKAIAAPEAEGEQLIKQTYQLGLLSQGLLQGAELSAFIERNMNALVK | failed
MQEKYNFGKVSSQHKNYSKIETMLRPKGFDKLDHYFRTELDIDLTDETIELLLNSVKAAFGKLFYGAEQRARWNGRDFIALADLNITKALEEHIKNFQKIEQDMGVDELLEYIAFIPPVEMNVGEDLKSEYRNIMGGLLLMHADVIKKATGERKPSREAMEFVAQIVDKVF | not failed
